Four molecules from patent publication US20150284431A1 can be followed below.

Square brackets hold non-standard residues; d marks the D form. * marks the point of attachment. Butanoyl(4-Ph) = O=C(CCCc1ccccc1)*; Butanoyl(4-ethynyl) = C#CCCCC(=O)*

A word on the Ki: it is the dissociation constant of the complex between target and ligand, obtained from inhibition or displacement. A low value points to a stronger hold on the target.

For experiment [1], the target named is human melanocortin 1 receptor (human) (UniProt Q01726). The experiment is described as follows: competition with Eu-NDP-alpha-MSH, time-resolved fluorescence; 10% ligand loading.
Chain of human melanocortin 1 receptor (human) (Q01726 whole entry): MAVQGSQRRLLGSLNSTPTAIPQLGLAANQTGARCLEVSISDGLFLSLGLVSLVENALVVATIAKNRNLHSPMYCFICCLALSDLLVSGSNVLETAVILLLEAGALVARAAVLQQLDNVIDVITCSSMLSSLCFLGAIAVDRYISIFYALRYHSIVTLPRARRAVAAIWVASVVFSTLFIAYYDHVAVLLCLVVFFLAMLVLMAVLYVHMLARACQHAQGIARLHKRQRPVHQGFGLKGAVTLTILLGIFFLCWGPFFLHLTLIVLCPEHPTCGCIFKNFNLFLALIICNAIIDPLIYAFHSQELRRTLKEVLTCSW
The target is the same in experiment [2]. In words: competition with Eu-NDP-alpha-MSH, Eu time-resolved fluorescence, HCT116/hMC1R cells; concentration normalized to the targeting group.

{Butanoyl(4-Ph)}-H[dF]RWGK(Butanoyl(4-ethynyl))-NH2 (peptide, part only; not given: triblock polymer carrier, part only, also: micelle not crosslinked, triblock polymer block lengths not given here) [4-targeted uncrosslinked (UXL) micelle]: in experiment [1], the Ki was found to be 12 nM.

B1: 4-targeted crosslinked (XL) micelle (peptide, part only; not given: crosslinked triblock polymer carrier, part only)
peptide: {Butanoyl(4-Ph)}-H[dF]RWGK(Butanoyl(4-ethynyl))-NH2
modifications: also: micelle crosslinked with Fe(III), triblock polymer block lengths not given here
For B1, the Ki in experiment [1] turned out to be 2.9 nM.

B2: 4-targeted micelles (peptide, part only; not given: triblock polymer carrier, part only)
peptide: HFRWGK
modifications: not fully specified; N-terminal 4-phenylbutyryl; DPhe at 2; Lys(hex-5-ynoyl) at 6 joined by a 1,2,3-triazole to the PEG block of the triblock polymer; C-terminal amide
As to B2, the Ki in experiment [2] worked out at 11.5 nM.

B3: 4-targeted triblock polymer (peptide, part only; not given: triblock polymer, part only)
peptide: HFRWGK
modifications: N-terminal 4-phenylbutyryl; DPhe at 2; Lys(hex-5-ynoyl) at 6 joined by a 1,2,3-triazole (click reaction) to the azide end of the PEG block of the triblock polymer; C-terminal amide
For the molecule B3, the Ki in experiment [2] amounted to 25.6 nM.
